Columns and labels:
mouse c-Met ECD = target: T1, mouse c-Met ECD (mouse, UniProt P16056 25-931); test: ELISA, coated ECD (data not shown)
T1 construct: extracellular domain

RON-ECD-Fc = target: T2, RON-ECD-Fc (human, UniProt Q04912 25-957); test: ELISA, coated ECD-Fc, antibody 462.963 ng/mL
T2 construct: extracellular domain; Bought reagent; not shown: Fc part of the bought fusion
T2 sequence (looked up): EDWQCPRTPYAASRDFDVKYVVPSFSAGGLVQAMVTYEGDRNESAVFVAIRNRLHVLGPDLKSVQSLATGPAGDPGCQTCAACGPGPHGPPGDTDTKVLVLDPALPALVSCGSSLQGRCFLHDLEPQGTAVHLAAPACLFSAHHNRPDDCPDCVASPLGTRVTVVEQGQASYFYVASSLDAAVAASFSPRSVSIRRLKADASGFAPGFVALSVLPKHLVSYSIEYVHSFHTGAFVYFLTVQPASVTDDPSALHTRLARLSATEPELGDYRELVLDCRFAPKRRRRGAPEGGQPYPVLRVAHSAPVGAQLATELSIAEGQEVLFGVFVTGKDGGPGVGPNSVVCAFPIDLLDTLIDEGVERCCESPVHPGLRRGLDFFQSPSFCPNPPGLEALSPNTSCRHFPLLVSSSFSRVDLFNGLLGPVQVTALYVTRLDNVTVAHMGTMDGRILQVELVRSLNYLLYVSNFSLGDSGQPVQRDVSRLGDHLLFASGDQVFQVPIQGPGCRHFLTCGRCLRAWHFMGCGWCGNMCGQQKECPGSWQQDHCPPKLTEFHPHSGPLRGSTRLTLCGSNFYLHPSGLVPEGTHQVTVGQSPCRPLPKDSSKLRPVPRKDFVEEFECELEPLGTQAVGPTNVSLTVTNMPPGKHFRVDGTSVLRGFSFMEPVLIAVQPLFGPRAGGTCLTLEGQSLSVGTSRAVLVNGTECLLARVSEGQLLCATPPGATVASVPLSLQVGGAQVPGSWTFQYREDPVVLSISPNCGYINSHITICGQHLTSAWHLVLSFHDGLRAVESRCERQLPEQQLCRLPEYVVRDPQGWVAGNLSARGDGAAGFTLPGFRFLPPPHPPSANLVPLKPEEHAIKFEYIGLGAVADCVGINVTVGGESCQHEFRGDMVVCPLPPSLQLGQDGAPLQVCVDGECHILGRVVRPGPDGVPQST
Method: (§1) Wells of 96-well EIA/RIA high binding plates (Costar, #2592) are coated with 100 μL of 1 μg/mL human c-Met extracellular domain (ECD)-Fc-Flis fusion (SEQ ID NO:72), RON-ECD-Fc (R&D Systems, #1947-MS), or PlexinA2-ECD-Fc (Abnova, Taipei, Taiwan #H00005362-P01) in coating buffer (BioFX Labs, # COAT-1000-01) overnight at 4° C. […] After the plates are washed, 100 μL/well of substrate solution (BioFx, #TMBW-1000-01) are added and the plates are incubated for 10 min. at room temperature. 100 μL/well of stop solution (BioFx, # LSTP-1000-01) are added to stop the reaction. The colorimetric signals are developed and read at 450 nm using a SpectraMax 190 plate reader (Molecular Devices, Sunnyvale, Calif.). c-Met antibody binding to c-Met, RON and PlexinA2 ECDs is proportional to color signal production.

PlexinA2-ECD-Fc = target: T3, PlexinA2-ECD-Fc (human, UniProt O75051 35-1237); test: ELISA, coated ECD-Fc, antibody 462.963 ng/mL
T3 construct: extracellular domain; Bought reagent
T3 sequence (looked up): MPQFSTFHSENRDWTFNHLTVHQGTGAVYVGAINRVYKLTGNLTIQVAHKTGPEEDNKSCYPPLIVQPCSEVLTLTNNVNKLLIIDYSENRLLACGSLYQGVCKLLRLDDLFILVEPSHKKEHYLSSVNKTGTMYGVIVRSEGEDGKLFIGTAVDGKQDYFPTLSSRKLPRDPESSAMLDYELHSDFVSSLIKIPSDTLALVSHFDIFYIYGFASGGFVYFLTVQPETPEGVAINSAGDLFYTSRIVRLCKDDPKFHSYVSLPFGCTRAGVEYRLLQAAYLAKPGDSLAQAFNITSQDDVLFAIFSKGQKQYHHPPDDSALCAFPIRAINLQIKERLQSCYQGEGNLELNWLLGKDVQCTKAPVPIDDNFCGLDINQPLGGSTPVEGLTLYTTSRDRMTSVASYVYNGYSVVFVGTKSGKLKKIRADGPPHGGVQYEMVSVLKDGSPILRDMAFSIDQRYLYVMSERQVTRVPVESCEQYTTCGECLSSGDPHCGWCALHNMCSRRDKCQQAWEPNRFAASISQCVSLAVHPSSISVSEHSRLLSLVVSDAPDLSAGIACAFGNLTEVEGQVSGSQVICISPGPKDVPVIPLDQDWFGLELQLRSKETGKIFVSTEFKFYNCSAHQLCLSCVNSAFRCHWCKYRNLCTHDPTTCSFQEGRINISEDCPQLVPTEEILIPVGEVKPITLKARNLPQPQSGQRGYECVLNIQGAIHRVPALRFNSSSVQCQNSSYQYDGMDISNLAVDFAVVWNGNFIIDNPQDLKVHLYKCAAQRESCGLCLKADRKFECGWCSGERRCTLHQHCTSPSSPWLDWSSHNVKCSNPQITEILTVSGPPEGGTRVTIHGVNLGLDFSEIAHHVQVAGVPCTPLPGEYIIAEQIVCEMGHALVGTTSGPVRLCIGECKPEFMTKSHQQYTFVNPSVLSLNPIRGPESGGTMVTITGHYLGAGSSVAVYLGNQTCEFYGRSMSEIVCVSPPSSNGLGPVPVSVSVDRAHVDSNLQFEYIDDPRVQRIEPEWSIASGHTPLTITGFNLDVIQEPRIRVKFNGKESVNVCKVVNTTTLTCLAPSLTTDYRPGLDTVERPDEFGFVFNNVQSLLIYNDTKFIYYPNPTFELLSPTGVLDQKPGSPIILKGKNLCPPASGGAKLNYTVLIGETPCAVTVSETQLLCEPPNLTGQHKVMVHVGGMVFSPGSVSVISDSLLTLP
Method: as §1

Human c-Met-Flis-Fc ECD = target: T4, Human c-Met-Flis-Fc ECD (human); test: ELISA, coated ECD-Fc, antibody 462.963 ng/mL
T4 construct: also called human c-Met extracellular domain (ECD)-Fc-Flis fusion; Human cMet-ECD-Fc-Flis
T4 sequence (chain, as listed by the source limits assumed): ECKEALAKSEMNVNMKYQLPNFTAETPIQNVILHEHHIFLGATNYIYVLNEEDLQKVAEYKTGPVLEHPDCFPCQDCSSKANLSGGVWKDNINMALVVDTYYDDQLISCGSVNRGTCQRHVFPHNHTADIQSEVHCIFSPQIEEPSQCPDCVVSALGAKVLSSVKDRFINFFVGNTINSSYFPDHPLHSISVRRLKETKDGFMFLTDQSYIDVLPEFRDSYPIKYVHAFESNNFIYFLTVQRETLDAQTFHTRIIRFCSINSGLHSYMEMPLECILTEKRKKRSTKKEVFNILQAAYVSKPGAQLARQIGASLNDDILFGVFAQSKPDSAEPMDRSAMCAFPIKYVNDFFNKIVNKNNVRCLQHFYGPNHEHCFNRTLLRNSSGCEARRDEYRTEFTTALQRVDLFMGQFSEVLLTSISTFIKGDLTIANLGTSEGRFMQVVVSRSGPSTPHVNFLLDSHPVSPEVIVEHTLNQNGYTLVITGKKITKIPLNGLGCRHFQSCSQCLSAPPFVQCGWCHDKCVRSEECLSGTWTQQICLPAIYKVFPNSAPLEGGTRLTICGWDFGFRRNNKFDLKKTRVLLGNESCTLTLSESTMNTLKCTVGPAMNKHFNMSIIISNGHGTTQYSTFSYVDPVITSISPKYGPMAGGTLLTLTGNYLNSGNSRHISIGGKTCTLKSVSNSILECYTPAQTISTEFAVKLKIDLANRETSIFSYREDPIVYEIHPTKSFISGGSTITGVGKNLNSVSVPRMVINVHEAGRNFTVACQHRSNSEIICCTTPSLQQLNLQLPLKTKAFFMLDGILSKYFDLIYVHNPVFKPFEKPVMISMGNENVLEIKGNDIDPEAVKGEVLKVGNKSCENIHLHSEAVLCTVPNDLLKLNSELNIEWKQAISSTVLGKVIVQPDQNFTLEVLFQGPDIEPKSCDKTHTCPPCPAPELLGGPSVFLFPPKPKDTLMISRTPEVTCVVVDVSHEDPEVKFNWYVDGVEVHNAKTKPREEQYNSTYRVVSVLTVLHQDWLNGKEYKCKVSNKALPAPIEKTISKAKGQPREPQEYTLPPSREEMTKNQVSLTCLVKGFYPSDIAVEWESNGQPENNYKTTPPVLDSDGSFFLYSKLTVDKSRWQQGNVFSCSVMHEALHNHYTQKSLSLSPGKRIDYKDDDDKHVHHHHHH
Method: as §1

T1 sequence (P16056 25-931): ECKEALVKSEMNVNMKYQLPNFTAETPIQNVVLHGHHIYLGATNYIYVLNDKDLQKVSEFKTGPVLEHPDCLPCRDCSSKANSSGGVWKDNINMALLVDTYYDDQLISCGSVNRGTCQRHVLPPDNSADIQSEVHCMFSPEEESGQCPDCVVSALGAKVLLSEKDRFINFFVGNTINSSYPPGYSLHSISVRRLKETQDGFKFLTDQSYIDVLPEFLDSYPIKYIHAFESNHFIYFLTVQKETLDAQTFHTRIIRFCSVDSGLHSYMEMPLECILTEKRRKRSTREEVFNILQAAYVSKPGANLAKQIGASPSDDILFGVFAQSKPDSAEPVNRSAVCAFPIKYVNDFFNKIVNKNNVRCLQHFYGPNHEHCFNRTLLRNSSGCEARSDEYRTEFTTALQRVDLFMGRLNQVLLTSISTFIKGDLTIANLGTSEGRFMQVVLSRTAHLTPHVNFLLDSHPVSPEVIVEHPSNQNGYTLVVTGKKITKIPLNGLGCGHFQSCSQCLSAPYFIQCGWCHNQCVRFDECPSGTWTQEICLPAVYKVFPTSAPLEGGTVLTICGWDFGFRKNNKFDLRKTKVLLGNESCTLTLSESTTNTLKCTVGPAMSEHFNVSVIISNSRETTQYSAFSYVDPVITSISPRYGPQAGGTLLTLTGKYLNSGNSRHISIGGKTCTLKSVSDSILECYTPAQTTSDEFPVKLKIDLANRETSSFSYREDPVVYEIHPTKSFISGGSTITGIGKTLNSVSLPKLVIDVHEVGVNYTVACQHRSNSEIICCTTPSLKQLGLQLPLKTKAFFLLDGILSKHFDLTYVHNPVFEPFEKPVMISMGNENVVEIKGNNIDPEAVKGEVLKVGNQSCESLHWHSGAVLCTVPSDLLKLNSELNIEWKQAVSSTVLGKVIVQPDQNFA

- binding result (mouse c-Met ECD): no binding (tested: 100 nM)
- Average A450 nm (RON-ECD-Fc): 0.088 A450 nm
- Average A450 nm (PlexinA2-ECD-Fc): 0.086 A450 nm
- Average A450 nm (Human c-Met-Flis-Fc ECD): 4 A450 nm
B1: C8-6 (antibody, human IgG2, kappa, V domains shown)
VH: QVQLVQSGAEVKKPGASVKVSCKASGYTFTDYYMHWVRQAPGQGLEWMGRVNPNRGGTTYNQKFEGRVTMTTDTSTSTAYMELRSLRSDDTAVYYCARTNWLDYWGQGTTVTVSS
VL: DIQMTQSPSSLSASVGDRVTITCSVSSSVSSIYLHWYQQKPGKAPKLLIYSTSNLASGVPSRFSGSGSGTDFTLTISSLQPEDFATYYCIQYSGYPLTFGGGTKVEIKR
notes: Called IgG4, kappa; also called Mab C8-6
